Here are results for one molecule from article PMC11849118.

The assay deals with T1, CFP-tagged hABHD5 (Human ABHD5-ECFP) (human), Q8WTS1.
T1 chain: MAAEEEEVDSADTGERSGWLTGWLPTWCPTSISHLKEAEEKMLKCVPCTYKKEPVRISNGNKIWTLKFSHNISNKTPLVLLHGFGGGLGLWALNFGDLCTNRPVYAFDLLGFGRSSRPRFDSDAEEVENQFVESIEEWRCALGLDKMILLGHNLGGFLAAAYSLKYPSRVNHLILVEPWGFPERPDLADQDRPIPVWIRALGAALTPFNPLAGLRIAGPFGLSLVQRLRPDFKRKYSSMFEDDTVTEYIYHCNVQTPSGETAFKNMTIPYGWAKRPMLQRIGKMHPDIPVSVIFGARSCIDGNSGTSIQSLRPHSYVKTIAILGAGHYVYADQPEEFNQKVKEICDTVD
In words: fluorescence cross-correlation spectroscopy (FCCS); live cell dual color FCCS in transfected cells loaded with oleic acid overnight; excitation focused into the center of the cytoplasm; Fc = fraction of diffusers that are multicolored clusters. Particulars: remark: other sources report otherwise.

B1: WT hPNPLA3-EYFP, Q9NST1 1-481 (natural protein)
chain: MYDAERGWSLSFAGCGFLGFYHVGATRCLSEHAPHLLRDARMLFGASAGALHCVGVLSGIPLEQTLQVLSDLVRKARSRNIGIFHPSFNLSKFLRQGLCKCLPANVHQLISGKIGISLTRVSDGENVLVSDFRSKDEVVDALVCSCFIPFYSGLIPPSFRGVRYVDGGVSDNVPFIDAKTTITVSPFYGEYDICPKVKSTNFLHVDITKLSLRLCTGNLYLLSRAFVPPDLKVLGEICLRGYLDAFRFLEEKGICNRPQPGLKSSSEGMDPEVAMPSWANMSLDSSPESAALAVRLEGDELLDHLRLSILPWDESILDTLSPRLATALSEEMKDKGGYMSKICNLLPIRIMSYVMLPCTLPVESAIAIVQRLVTWLPDMPDDVLWLQWVTSQVFTRVLMCLLPASRSQMPVSSQQASPCTPEQDWPCWTPCSPKGCPAETKAEATPRSILRSSLNFFLGNKVPAGAEGLSTFPSFSLEKSL
Regarding B1, the Fc (fraction of diffusers that are multicolored clusters of ABHD5 and PNPLA3) was found to be 0.32; the percent of ABHD5 codiffusing with PNPLA3 is 24%; the percent of PNPLA3 codiffusing with ABHD5 came to 78%.
